According to US20170327535A1:

Legend:
[1] = target: aIgE-Fab (Fab fragment of Omalizumab, Xolair); test: SPR Biacore 3000, Fab on CM5 chip, peptide analyte, 1:1 fit
[2] = target: aTNFa-Fab (Fab fragment of Infliximab, Remicade); test: as above
[3] = target: aRSV-Fab (Fab fragment of Palivizumab, Synagis); test: as above
[4] = target: aTNFa-Fab (Fab fragment of Infliximab, Remicade); test: dynamic binding capacity on a 1 mL-gel column, 1 mg/mL aTNFa-Fab at […], 55% breakthrough

Ka [1] [M⁻¹]	Ka [2] [M⁻¹]	Ka [3] [M⁻¹]	55% DBC [4] [mg/mL/gel]	Substance
4.43e+08	700000	–	–	LB5t-Wild.1d (B5 domain of Protein L of Peptostreptococcus magnus 312 strain with deletion of the N-terminal region, single domain)
1.12e+09	30000	4.4e+06	–	LB1t-Wild.1d (B1 domain of PpL312 with deletion of the N-terminal region)
–	–	–	4.8	commercially available Protein L carrier (HiTrap Protein L, GE Healthcare Bioscience)
–	–	1e+06	–	LB2t-Wild.1d (B2 domain of PpL312 with deletion of the N-terminal region)
3.77e+08	–	–	–	LB3t-Wild.1d (B3 domain of PpL312 with deletion of the N-terminal region)
2.71e+07	–	2.3e+06	–	LC1t-Wild.1d (C1 domain of PpL3316 with deletion of the N-terminal region)
–	–	8.7e+06	–	LC3t-Wild.1d (C3 domain of PpL3316 with deletion of the N-terminal region)
1.08e+09	300000	1.38e+07	–	LB4t-Wild.1d (B4 domain of PpL312 with deletion of the N-terminal region)
4.18e+09	–	1.93e+07	–	LC4t-Wild.1d (C4 domain of PpL3316 with deletion of the N-terminal region)
–	–	9.2e+06	–	LC2t-Wild.1d (C2 domain of PpL3316 with deletion of the N-terminal region)
